{"source": "paper PMC6076264", "biological_target": "ribosomal protein bL12 (E. coli (endogenous in ribosomes of strain MRE600)) (UniProt P0A7K2)", "sequence (P0A7K2 whole entry)": "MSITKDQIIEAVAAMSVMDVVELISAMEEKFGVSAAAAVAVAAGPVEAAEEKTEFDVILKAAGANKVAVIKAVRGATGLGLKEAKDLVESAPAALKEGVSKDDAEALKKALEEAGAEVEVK", "data": [{"substance": "RF1 (wild type) (from UniProt P0A7I0 1-360) (natural protein)", "values": [{"measurement": "apparent affinity of RF1 for pre-hydrolysis complexes (PreHC, 0.01 uM) prepared with bL12-depleted (∆bL12) ribosomes, from peptide hydrolysis (10 s, 37 °C)", "result": 210, "unit": "nM"}, {"measurement": "apparent affinity of RF1 for pre-hydrolysis complexes (PreHC, 0.01 uM) prepared with wild-type ribosomes bearing bL12, from peptide hydrolysis (10 s, 37 °C)", "result": 9, "unit": "nM"}]}]}
